According to US20210032343A1 (BEIJING HANMI PHARMACEUTICAL, published 2021):

Molecular target: recombinant human PD-1 (product No. 10377-H08H, Beijing Yiqiao Shenzhou) (human, UniProt Q15116 25-167)
Experiment: ELISA, recombinant human PD-1 coated at 1 ug/mL, control antibody, anti-human IgG-HRP detection
Experimental: The coating concentration was 1 μg/mL. The coating amount was 100 μL per well, and the coating was performed at 4° C. overnight. PBST washing was performed five times. The result was sealed at 300 μL/well using PBST containing 1% BSA, and subjected to incubation for 1 hour at 25° C. PBST washing was performed five times. […] PBST washing was performed five times. Subsequently, 100 μL of the horseradish peroxidase-labeled anti-human IgG antibody (product No. AP309P, available from Chemicon) diluted at 1:2,000 in PBST containing 1% BSA was then added to each well, and the cells were incubated for 1 hour at 25° C. PBST washing was performed five times. 100 μL of the colorimetric substrate TMB was added to each well, and color development was allowed to occur for 10 minutes at room temperature. Color development was stopped by adding 100 μL of 1 M H₂SO₄ to each well. The absorbance at 450 nm was read on a microplate reader.

Chain of recombinant human PD-1 (product No. 10377-H08H, Beijing Yiqiao Shenzhou) (Q15116 25-167 limits assumed): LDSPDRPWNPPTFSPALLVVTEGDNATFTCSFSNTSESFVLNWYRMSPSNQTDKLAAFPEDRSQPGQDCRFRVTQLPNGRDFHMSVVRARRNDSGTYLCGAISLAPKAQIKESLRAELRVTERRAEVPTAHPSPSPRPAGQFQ

B1: PD-1 monoclonal antibody (antibody, V domains shown)
VH: QVQLVQSGAEVKKPGSSVKVSCKASGGTFSSTAISWVRQAPGQGLEWMGGIWPSFGTASYAQKFQGRVTITADESTSTAYMELSSLRSEDTAVYYCARAEYSSTGIFDYWGQGTLVTVSS
VL: DIQMTQSPSSVSASVGDRVTITCRASQGISSWLAWYQQKPGKAPKLLISAASSLQSGVPSRFSGSGSGTDFTLTISSLQPEDFATYYCQQANHLPFTFGGGTKVEIK
notes: also called bivalent monoclonal antibody (anti-PD-1)
binding result: binds
